Results: publication PMC6650407 (Scientific Reports, 2019)

T1: SyFumC (GST-SyFumC; Synechocystis 6803 fumarase C) (Synechocystis sp. PCC 6803, UniProt Q55674)
T1 construct: gene fumC
T1 sequence (Q55674 1-466): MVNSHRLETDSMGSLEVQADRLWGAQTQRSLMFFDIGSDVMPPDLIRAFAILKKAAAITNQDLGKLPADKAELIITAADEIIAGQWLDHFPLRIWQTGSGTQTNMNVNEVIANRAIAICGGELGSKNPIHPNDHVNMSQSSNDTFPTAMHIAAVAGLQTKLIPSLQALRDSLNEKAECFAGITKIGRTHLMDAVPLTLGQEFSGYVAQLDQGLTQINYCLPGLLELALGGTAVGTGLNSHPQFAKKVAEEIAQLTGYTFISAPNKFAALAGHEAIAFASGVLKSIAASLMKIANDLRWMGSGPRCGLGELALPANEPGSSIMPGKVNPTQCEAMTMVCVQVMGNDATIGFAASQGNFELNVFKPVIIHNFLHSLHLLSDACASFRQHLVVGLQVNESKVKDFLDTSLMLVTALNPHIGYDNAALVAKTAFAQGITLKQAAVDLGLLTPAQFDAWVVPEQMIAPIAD


Legend:
[1] = target: T1, SyFumC (GST-SyFumC; Synechocystis 6803 fumarase C); assay: absorbance at […] nm, saturation curve; format: biochemical; settings: 100 mM Tris-HCl pH 7.5, 30 °C, no effector
[2] = target: T2, SyFumC (GST-SyFumC; Synechocystis 6803 fumarase C) (Synechocystis sp. PCC 6803, UniProt Q55674, A314E); assay: absorbance at […] nm, saturation curve; format: biochemical; settings: 100 mM Tris-HCl pH 7.5, 30 °C, no effector
T2 construct: gene fumC

[3] = target: T1, SyFumC (GST-SyFumC; Synechocystis 6803 fumarase C); assay: inhibition, absorbance at […] nm; format: biochemical; settings: read-out: % of control activity at 4 mM
purified protein = substrate: O=C(O)C[C@H](O)C(=O)O; assay: purified protein; settings: 100 mM Tris-HCl pH 7.5, 30 °C, no effector

Row | Molecule | Km [1] [µM] | Km [2] [µM] | remaining activity at 4000 µM [3] [%] | Km (purified protein) [µM] | kcat (purified protein) [s⁻¹] | kcat/Km (purified protein) [M⁻¹ s⁻¹]
1 | SyFumC (GST-SyFumC; Synechocystis 6803 fumarase C) (Synechocystis sp. PCC 6803 substr. Kazusa) (protein) MVNSHRLETDSMGSLEVQADRLWGAQTQRSLMFFDIGSDVMPPDLIRAFAILKKAAAITNQDLGKLPADKAELIITAADEIIAGQWLDHFPLRIWQTGSGTQTNMNVNEVIANRAIAICGGELGSKNPIHPNDHVNMSQSSNDTFPTAMHIAAVAGLQTKLIPSLQALRDSLNEKAECFAGITKIGRTHLMDAVPLTLGQEFSGYVAQLDQGLTQINYCLPGLLELALGGTAVGTGLNSHPQFAKKVAEEIAQLTGYTFISAPNKFAALAGHEAIAFASGVLKSIAASLMKIANDLRWMGSGPRCGLGELALPANEPGSSIMPGKVNPTQCEAMTMVCVQVMGNDATIGFAASQGNFELNVFKPVIIHNFLHSLHLLSDACASFRQHLVVGLQVNESKVKDFLDTSLMLVTALNPHIGYDNAALVAKTAFAQGITLKQAAVDLGLLTPAQFDAWVVPEQMIAPIAD | – | – | – | 478 ± 112 | 42.3 | 90300
2 | SyFumC (GST-SyFumC; Synechocystis 6803 fumarase C) (Synechocystis sp. PCC 6803 substr. Kazusa; A314E) (protein) MVNSHRLETDSMGSLEVQADRLWGAQTQRSLMFFDIGSDVMPPDLIRAFAILKKAAAITNQDLGKLPADKAELIITAADEIIAGQWLDHFPLRIWQTGSGTQTNMNVNEVIANRAIAICGGELGSKNPIHPNDHVNMSQSSNDTFPTAMHIAAVAGLQTKLIPSLQALRDSLNEKAECFAGITKIGRTHLMDAVPLTLGQEFSGYVAQLDQGLTQINYCLPGLLELALGGTAVGTGLNSHPQFAKKVAEEIAQLTGYTFISAPNKFAALAGHEAIAFASGVLKSIAASLMKIANDLRWMGSGPRCGLGELALPENEPGSSIMPGKVNPTQCEAMTMVCVQVMGNDATIGFAASQGNFELNVFKPVIIHNFLHSLHLLSDACASFRQHLVVGLQVNESKVKDFLDTSLMLVTALNPHIGYDNAALVAKTAFAQGITLKQAAVDLGLLTPAQFDAWVVPEQMIAPIAD | – | – | – | 442 ± 20 | 21.6 | 49000

Continued, in another order:

Row | Km [1] [µM] | Km [2] [µM] | remaining activity at 4000 µM [3] [%] | Molecule | Km (purified protein) [µM] | kcat (purified protein) [s⁻¹] | kcat/Km (purified protein) [M⁻¹ s⁻¹]
3 | 244 ± 26 | 179 ± 36 | – | O=C(O)/C=C/C(=O)O [fumarate] | – | – | –
4 | – | – | 45 to 58 | O=C(O)CCC(=O)O [succinate] | – | – | –
